This assay deals with CD28 on the surface of PBMCs and T cells (human) (UniProt P10747). Description: flow cytometry; CD28 positive fraction after Fab-multimer magnetic selection, D-biotin release and washing; remaining CD28.3 Fab monomers detected with the α-Ig kappa mAb; live (PI-negative) CD3+ cells; right dot plot. On the technique in general: A flow cytometer gives signals particle by particle.

The values below come from US20260242729A1.

“αCD28 Fab fragment derived from the anti-human CD28 antibody CD28.3, heavy chain C-terminally fused to Twin-Strep-tag (monomeric Fab)” came in with a percentage of cells within gate of 5.91%.
